The target of this assay is T1, soluble CD16A (sCD16A) (UniProt P08637 17-208, limits assumed).
T1 construct: extracellular domain; Amine-coupled to the chip in SPR; biotin- or HRP-conjugated as the probe in the sandwich ELISAs; also called FcγRIIIA; sCD16A-Biotin
Description: sandwich ELISA: sCD32B coated on the plate, normalised conditioned medium titrated, HRP-conjugated sCD16A as the probe; OD450. How it is done: The binding of diabody molecules comprising Fc domains and engineered disulfide bonds between the ‘lighter’ and ‘heavier’ polypeptide chains to sCD32B and sCD16A was assayed in a sandwich ELISA. Diabodies assayed were produced by 3 recombinant expression systems: expressing constructs 1 and 10, expressing constructs 1 and 9, and expressing constructs 11 and 12, respectively. sCD32B was used as the target protein. The secondary probe was HRP conjugated sCD16A. Binding of h3G8 was used as control.
ELISA: The binding of diabody molecules secreted into the medium was assayed by sandwich ELISA as described, supra. Unless indicated, CD32B was used to coat the plate, i.e., as the target protein, and HRP-conjugated CD16 was used as the probe.

T1 sequence (P08637 17-208 limits assumed): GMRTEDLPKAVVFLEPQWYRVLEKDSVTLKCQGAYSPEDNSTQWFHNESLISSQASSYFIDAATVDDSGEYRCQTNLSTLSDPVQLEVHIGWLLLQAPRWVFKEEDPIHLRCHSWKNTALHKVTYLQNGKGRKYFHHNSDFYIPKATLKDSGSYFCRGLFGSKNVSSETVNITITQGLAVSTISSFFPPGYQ

B1: diabody of constructs 11 and 12, C-terminal hinge-Fc and engineered VL/VH cysteines (bispecific antibody, human IgG1)
chain 1: not shown
chain 2: DIVMTQSPDSLAVSLGERATINCKASQSVDFDGDSFMNWYQQKPGQPPKLLIYTTSNLESGVPDRFSGSGSGTDFTLTISSLQAEDVAVYYCQQSNEDPYTFGQGTKLEIKGGGSGGGGQVQLVQSGAEVKKPGASVKVSCKASGYTFTNYWIHWVRQAPGQCLEWIGVIDPSDTYPNYNKKFKGRVTMTVVVSTSTAYMELRSLRSDDTAVYYCARNGDSDYYSGMDYWGQGTTVTVSSFNRGEC
notes: construct 12 = Hu3G8VL-Hu2B6VH(G44C)-FNRGEC; About 150 kDa on the blot
Consider B1, for which the binding result is “binds”.

B2: diabody of constructs 1 and 9 (pMGX0669+pMGX0719), N-terminal hinge/Fc (bispecific antibody, human IgG1)
chain 1: EIVLTQSPDFQSVTPKEKVTFTCRTSQSIGTNIHWYQQKPDQSPKLLIKEVSESISGVPSRFSGSGSGTDFTLTINSLEAEDAATYYCQQSNTWPFTFGGGTKVEIKGGGSGGGGQVTLRESGPALVKPTQTLTLTCTFSGFSLSTSGMGVGWIRQPPGKALEWLAHIWWDDDKRYNPALKSRLTISKDTSKNQVVLTMTNMDPVDTATYYCAQINPAWFAYWGQGTLVTVSSLGGC
chain 2: not shown
notes: Designed as tetravalent IgG-like diabody; Tested as normalized conditioned medium; also called constructs 9 and 1; constructs 9+1
With B2, the binding result is listed as “binds”.

B3: diabody of constructs 1 and 10 (pMGX0669+pMGX0718), N-terminal Fc (bispecific antibody)
chain 1: EIVLTQSPDFQSVTPKEKVTFTCRTSQSIGTNIHWYQQKPDQSPKLLIKEVSESISGVPSRFSGSGSGTDFTLTINSLEAEDAATYYCQQSNTWPFTFGGGTKVEIKGGGSGGGGQVTLRESGPALVKPTQTLTLTCTFSGFSLSTSGMGVGWIRQPPGKALEWLAHIWWDDDKRYNPALKSRLTISKDTSKNQVVLTMTNMDPVDTATYYCAQINPAWFAYWGQGTLVTVSSLGGC
chain 2: not shown
notes: also called constructs 10 and 1; constructs 10+1; copies: 2 + 2
For B3, the binding result is “binds”.

The record behind these values is patent publication US20070004909A1 (MacroGenics, published 2007).
